Molecular target: T1, VPAC1 receptor (human, UniProt P32241 31-457)
T1 sequence (looked up): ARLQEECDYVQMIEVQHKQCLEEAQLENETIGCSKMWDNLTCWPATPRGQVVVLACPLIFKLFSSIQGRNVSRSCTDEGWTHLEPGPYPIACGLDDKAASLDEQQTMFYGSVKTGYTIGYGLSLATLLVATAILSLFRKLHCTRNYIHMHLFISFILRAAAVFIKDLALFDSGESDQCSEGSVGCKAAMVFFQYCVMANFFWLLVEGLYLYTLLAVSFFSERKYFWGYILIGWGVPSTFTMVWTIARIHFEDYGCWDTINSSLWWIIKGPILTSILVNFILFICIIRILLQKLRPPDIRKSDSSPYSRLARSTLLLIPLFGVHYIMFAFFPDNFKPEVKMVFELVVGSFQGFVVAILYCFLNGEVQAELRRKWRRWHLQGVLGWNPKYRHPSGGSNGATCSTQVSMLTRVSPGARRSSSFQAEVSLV
Test: cell-based or functional assay

B1: VIP-BH3 BID fusion protein (other)
chain: MHSDAVFTDNYTRLRKQMAVKKYLNSILNGSSLLIARRMPNFNEDIIRNIARHLAQVGDSMDRLEHHHHHH
IC50, cytotoxicity on A549 cells (MTT assay, 24 h): ~5 µM | IC50, cytotoxicity on HT29 cells (MTT assay, 24 h): ~15 µM

— patent publication US20100184651A1 (DABUR PHARMA, published 2010)
